Measured values taken from article PMC10397247.

Legend:
4H775-AA = target: T1, 4H775-AA; assay: two-hybrid library CCmax; details: mean of both orientations;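 further: natural log of median RNA to DNA barcode read ratio; higher means stronger binding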
T1 chain: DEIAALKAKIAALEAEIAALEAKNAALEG

O11-AA = target: T2, O11-AA; assay: two-hybrid library CCmax;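 further: natural log of median RNA to DNA barcode read ratio; higher means stronger binding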
T2 chain: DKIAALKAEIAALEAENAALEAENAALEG

4H816-AA = target: T3, 4H816-AA; assay: two-hybrid library CCmax; details: mean of both orientations;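 further: natural log of median RNA to DNA barcode read ratio; higher means stronger binding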
T3 chain: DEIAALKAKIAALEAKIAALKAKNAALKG

4H_BCR = target: T4, 4H_BCR; assay: two-hybrid library CCmax; details: mean of both orientations;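 further: natural log of median RNA to DNA barcode read ratio; higher means stronger binding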
T4 chain: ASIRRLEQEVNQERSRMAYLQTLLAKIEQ

4H510-AA = target: T5, 4H510-AA; assay: two-hybrid library CCmax
T5 chain: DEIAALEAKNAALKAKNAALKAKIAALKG

O13-AA = target: T6, O13-AA; assay: two-hybrid library CCmax; details: mean of both orientations
T6 chain: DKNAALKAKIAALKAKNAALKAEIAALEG

4H_GCN4 = assay: two-hybrid library CCmax; details: mean of both orientations
4H_APH = target: T7, 4H_APH; assay: two-hybrid library CCmax; details: mean of both orientations
T7 chain: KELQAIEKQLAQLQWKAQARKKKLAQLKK

4H87-AA = target: T8, 4H87-AA; assay: two-hybrid library CCmax; details: mean of both orientations
T8 chain: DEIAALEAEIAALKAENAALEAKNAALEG

GCN2_T = assay: two-hybrid library CCmax
O14-AA = target: T9, O14-AA; assay: two-hybrid library CCmax; details: mean of both orientations
T9 chain: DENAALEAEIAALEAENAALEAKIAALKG

4H730-bA = target: T10, 4H730-bA; assay: two-hybrid library CCNG1
T10 chain: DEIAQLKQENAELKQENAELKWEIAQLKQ

4H949-bA = target: T11, 4H949-bA; assay: two-hybrid library CCNG1
T11 chain: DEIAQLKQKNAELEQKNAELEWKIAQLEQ

4H796-bA = target: T12, 4H796-bA; assay: two-hybrid library CCNG1
T12 chain: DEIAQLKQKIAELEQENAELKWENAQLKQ

4H932-bA = target: T13, 4H932-bA; assay: two-hybrid library CCNG1
T13 chain: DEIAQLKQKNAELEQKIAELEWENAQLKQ

APC8191-AA = target: T14, APC8191-AA; assay: two-hybrid library CCmax; details: mean of both orientations
T14 chain: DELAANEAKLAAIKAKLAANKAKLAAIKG

APC9319-AA = target: T15, APC9319-AA; assay: two-hybrid library CCmax; details: mean of both orientations
T15 chain: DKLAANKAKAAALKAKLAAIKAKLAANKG

APC8910-AA = target: T16, APC8910-AA; assay: two-hybrid library CCmax; details: mean of both orientations
T16 chain: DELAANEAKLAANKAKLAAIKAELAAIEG

APC7099-AA = target: T17, APC7099-AA; assay: two-hybrid library CCmax; details: mean of both orientations
T17 chain: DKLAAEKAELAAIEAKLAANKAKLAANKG

APC6108-AA = target: T18, APC6108-AA; assay: two-hybrid library CCmax
T18 chain: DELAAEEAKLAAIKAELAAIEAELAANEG

APC9096-AA = target: T19, APC9096-AA; assay: two-hybrid library CCmax; details: mean of both orientations
T19 chain: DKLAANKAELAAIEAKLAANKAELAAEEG

APC9182-AA = target: T20, APC9182-AA; assay: two-hybrid library CCmax; details: mean of both orientations
T20 chain: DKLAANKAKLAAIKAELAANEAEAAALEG

APC5531-AA = target: T21, APC5531-AA; assay: two-hybrid library CCmax; details: mean of both orientations
T21 chain: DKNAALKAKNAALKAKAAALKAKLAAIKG

APC9141-AA = target: T22, APC9141-AA; assay: two-hybrid library CCmax; details: mean of both orientations
T22 chain: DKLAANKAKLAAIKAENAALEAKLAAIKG

APC8516-AA = target: T23, APC8516-AA; assay: two-hybrid library CCmax; details: mean of both orientations
T23 chain: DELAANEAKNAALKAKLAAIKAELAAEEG

APC8401-AA = target: T24, APC8401-AA; assay: two-hybrid library CCmax; details: mean of both orientations
T24 chain: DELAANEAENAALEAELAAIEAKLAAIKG

APC542-AA = target: T25, APC542-AA; assay: two-hybrid library CCmax
T25 chain: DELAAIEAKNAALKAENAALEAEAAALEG

APC9291-AA = target: T26, APC9291-AA; assay: two-hybrid library CCmax; details: mean of both orientations
T26 chain: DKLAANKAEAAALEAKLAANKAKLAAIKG

APC9806-AA = target: T27, APC9806-AA; assay: two-hybrid library CCmax; details: mean of both orientations
T27 chain: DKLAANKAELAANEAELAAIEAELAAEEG

APC7524-AA = target: T28, APC7524-AA; assay: two-hybrid library CCmax; details: mean of both orientations
T28 chain: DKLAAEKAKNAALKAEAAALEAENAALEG

APC6088-AA = target: T29, APC6088-AA; assay: two-hybrid library CCmax; details: mean of both orientations
T29 chain: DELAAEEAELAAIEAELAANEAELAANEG

4H741-bH = target: T30, 4H741-bH; assay: two-hybrid library CCNG1
T30 chain: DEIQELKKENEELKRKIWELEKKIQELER

4H741-bA = target: T31, 4H741-bA; assay: two-hybrid library CCNG1
T31 chain: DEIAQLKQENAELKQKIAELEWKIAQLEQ

Sequence of 4H_GCN4 (chain, as listed by the source): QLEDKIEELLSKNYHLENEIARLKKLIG

DEIAALEAKNAALKAKNAALKAKIAALKG [4H510-AA]
interaction score (4H775-AA): -1.67 | interaction score (O11-AA): 1.49 | interaction score (4H816-AA): -2 | interaction score (4H_BCR): -2.2 | interaction score (4H510-AA): -1.44 | interaction score (O13-AA): -1.66 | interaction score (4H_GCN4): -2.32 | interaction score (4H_APH): -2.26 | interaction score (4H87-AA): -1.29 | interaction score (GCN2_T): -1.77 | interaction score (O14-AA): 1.32

DEIAQLKQENAELKQENAELKWEIAQLKQ [4H730-bA]
interaction score (4H730-bA): 1.25 | interaction score (4H949-bA): -0.437 | interaction score (4H796-bA): -0.666 | interaction score (4H932-bA): -0.52

DELAAEEAKLAAIKAELAAIEAELAANEG [APC6108-AA]
interaction score (APC8191-AA): -1.6 | interaction score (APC9319-AA): -1.1 | interaction score (APC8910-AA): -2.2 | interaction score (APC7099-AA): -1.52 | interaction score (APC6108-AA): -1.61 | interaction score (APC9096-AA): -1.73

DELAAIEAKNAALKAENAALEAEAAALEG [APC542-AA]
interaction score (APC9182-AA): -1.84 | interaction score (APC5531-AA): -1.88 | interaction score (APC9141-AA): -1.64 | interaction score (APC8516-AA): -1.5 | interaction score (APC8401-AA): -1.89 | interaction score (APC542-AA): -1.57 | interaction score (APC9291-AA): -1.54 | interaction score (APC9806-AA): -1.91 | interaction score (APC7524-AA): -2 | interaction score (APC6088-AA): -2.13

DEIQELKKENEELKRKIWELEKKIQELER [4H741-bH]
interaction score (4H741-bH): 1.26

DEIAQLKQENAELKQKIAELEWKIAQLEQ [4H741-bA]
interaction score (4H741-bA): 0.341
